In US20140274782A1 (Stanford University, published 2014):

Experiments:
Assay in all cases: ProtoArray, GST-treated control array;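 note: human protein microarray (about 9500 recombinant proteins) incubated overnight with GST alone plus SAM cofactor as the negative control for G9a SET domain methylation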
[1] = molecular target: T1, FKBP14-FK506 binding protein 14, 22 kDa (FKBP14) (human, UniProt Q9NWM8 20-211)
T1 sequence (looked up): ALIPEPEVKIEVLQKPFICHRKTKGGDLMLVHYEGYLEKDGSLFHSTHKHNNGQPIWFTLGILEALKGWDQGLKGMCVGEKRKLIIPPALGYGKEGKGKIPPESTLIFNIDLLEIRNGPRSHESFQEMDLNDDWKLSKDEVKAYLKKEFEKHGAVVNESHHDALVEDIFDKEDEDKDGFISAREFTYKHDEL
Procedure: (§1) Briefly, a ProtoArray (Invitrogen, version 5.0) was incubated overnight with 50 μg of GST or recombinant GSTtagged G9a SET domain and the cofactor SAM.
(§2) Arrays were analyzed using GenePix Pro 6.1 software (Molecular Devices) and feature values were assigned to proteins using the array list provided by Invitrogen. We designated the following criteria for “hits”: GST array signal-to-noise ratio (SNR) less than or equal to 1.5, G9a array SNR greater than or equal to 10, and a difference between the G9a array SNR and the GST array SNR of greater than or equal to 12. Hits were individually visually validated. Proteins were removed from the list of potential substrates if irregular array features appeared to interfere with the array spots or SNR calculations.
(§3) Protein arrays bearing almost 9500 recombinant human proteins were methylated using GST-tagged recombinant G9a SET domain or GST alone as a control as shown in FIG. 4. […] Results were filtered for proteins scoring a GST array signal-to-noise ratio (SNR) less than or equal to 1.5, a G9a array SNR greater to or equal to 10, and a difference between the G9a and GST SNRs of greater than or equal to 12. Subsequent proteins were individually inspected for irregular array features.

[2] = molecular target: T2, GFOD1-Glucose-fructose oxidoreductase domain-containing protein 1 (human, UniProt Q9NXC2 22-390, limits assumed)
T2 sequence (looked up): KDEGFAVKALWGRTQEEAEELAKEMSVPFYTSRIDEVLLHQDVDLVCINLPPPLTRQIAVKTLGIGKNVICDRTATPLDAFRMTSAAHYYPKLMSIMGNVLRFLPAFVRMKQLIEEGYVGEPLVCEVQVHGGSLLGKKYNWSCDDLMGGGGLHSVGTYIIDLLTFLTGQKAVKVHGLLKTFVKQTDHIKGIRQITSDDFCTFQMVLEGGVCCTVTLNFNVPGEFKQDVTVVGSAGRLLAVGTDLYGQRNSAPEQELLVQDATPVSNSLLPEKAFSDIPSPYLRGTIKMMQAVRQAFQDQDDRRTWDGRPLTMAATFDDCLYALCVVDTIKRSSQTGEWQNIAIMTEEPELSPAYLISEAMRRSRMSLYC
Procedure: as §1, §2, §3

[3] = molecular target: N/A-cDNA clone IMAGE:4623222, partial cds (human)
Procedure: as §1, §2, §3

[4] = molecular target: T3, SCGB1A1-secretoglobin, family 1A, member 1 (uteroglobin) (SCGB1A1) (human, UniProt P11684 22-91, limits assumed)
T3 sequence (looked up): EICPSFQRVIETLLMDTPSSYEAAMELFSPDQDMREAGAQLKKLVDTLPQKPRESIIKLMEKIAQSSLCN
Procedure: as §1, §2, §3

[5] = molecular target: T4, GPR108-G protein-coupled receptor 108 (GPR108) (human, UniProt Q9NPR9 33-543, limits assumed)
T4 sequence (looked up): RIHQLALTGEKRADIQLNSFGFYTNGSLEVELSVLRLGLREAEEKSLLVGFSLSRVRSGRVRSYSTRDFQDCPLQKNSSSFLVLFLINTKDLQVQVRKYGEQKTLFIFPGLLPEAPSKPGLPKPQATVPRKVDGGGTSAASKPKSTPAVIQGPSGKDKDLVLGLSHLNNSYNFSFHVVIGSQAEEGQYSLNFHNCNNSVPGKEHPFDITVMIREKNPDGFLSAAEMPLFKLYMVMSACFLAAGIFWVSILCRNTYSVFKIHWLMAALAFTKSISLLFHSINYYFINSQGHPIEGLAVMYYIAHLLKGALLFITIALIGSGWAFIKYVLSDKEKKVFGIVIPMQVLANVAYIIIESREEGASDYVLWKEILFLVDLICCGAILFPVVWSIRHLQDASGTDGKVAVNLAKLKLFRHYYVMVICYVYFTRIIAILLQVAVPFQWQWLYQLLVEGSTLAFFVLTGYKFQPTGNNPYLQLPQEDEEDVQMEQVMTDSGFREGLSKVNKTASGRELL
Procedure: as §1, §2, §3

[6] = molecular target: T5, SMAP1-stromal membrane-associated protein 1 (SMAP1) (human, UniProt Q8IYB5 1-467, limits assumed)
T5 sequence (looked up): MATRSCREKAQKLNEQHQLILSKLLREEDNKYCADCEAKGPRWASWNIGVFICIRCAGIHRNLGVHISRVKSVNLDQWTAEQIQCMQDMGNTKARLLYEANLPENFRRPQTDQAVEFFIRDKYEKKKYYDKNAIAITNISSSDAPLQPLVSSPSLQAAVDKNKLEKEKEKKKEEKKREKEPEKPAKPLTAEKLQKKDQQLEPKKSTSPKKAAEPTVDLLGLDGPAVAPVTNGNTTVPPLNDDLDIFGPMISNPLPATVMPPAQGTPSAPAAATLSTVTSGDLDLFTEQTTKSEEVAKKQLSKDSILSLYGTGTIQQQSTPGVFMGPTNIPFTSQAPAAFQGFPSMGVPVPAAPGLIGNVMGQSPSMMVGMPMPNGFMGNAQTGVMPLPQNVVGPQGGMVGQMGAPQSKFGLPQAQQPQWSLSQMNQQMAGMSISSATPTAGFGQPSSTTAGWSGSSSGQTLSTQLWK
Procedure: as §1, §2, §3

[7] = molecular target: T6, UBE2S-Ubiquitin-conjugating enzyme E2 S (human, UniProt Q16763 1-222)
T6 sequence (looked up): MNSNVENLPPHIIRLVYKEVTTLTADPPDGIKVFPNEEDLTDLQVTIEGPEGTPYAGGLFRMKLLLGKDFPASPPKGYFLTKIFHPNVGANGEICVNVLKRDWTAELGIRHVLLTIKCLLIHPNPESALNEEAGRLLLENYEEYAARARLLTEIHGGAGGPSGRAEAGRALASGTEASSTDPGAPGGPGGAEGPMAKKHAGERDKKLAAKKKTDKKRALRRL
Procedure: as §1, §2, §3

[8] = molecular target: CDC2-cell division cycle 2, G1 to S and G2 to M (CDC2), transcript variant 1 (human, UniProt P06493 1-297)
Chain of CDC2-cell division cycle 2, G1 to S and G2 to M (CDC2), transcript variant 1 (P06493 whole entry, change not shown): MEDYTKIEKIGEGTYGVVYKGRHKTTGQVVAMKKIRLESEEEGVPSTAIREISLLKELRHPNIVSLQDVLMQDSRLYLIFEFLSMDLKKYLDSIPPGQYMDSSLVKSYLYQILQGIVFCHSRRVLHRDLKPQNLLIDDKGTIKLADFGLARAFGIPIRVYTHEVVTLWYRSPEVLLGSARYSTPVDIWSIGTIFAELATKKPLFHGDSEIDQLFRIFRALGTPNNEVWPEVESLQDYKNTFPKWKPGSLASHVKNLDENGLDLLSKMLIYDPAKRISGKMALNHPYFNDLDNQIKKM
Procedure: as §1, §2, §3

[9] = molecular target: KRR1-KRR1, small subunit (SSU) processome component, homolog (yeast) (KRR1) (human, UniProt Q13601 1-381, limits assumed)
Chain of KRR1-KRR1, small subunit (SSU) processome component, homolog (yeast) (KRR1) (Q13601 whole entry): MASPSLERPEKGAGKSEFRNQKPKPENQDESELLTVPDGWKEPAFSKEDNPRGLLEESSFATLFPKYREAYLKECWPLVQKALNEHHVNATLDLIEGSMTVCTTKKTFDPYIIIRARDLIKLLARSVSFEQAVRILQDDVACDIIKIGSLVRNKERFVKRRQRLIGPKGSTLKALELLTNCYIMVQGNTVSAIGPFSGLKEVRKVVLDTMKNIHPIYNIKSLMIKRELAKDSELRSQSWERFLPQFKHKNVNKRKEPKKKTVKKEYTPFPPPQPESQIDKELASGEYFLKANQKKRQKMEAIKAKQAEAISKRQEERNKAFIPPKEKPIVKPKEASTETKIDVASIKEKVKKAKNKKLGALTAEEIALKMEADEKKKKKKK
Procedure: as §1, §2, §3

B1: 3× Flag-3×MBT (designed binder)
chain: EEWSSSQPATGEKKECWSWESYLEEQKAITAPVSLFQDSQAVTHNKNGFKLGMKLEGIDPQHPSMYFILTVAEVCGYRLRLHFDGYSECHDFWVNANSPDIHPAGWFEKTGHKLQPPKGYKEEEFSWSQYLRSTRAQAAPKHLFVSQSHSPPPLGFQVGMKLEAVDRMNPSLVCVASVTDVVDSRFLVHFDNWDDTYDYWCDPSSPYIHPVGWCQKQGKPLTPPQDYPDPDNFCWEKYLEETGASAVPTWAFKVRPPHSFLVNMKLEAVDRRNPALIRVASVEDVEDHRIKIHFDGWSHGYDFWIDADHPDIHPAGWCSKTGHPLQPPLGPREPSSASPGG
notes: also called Flag-tagged 3×MBT; 3xFlag-3xMBT; not shown: made by PreScission cleavage of GST-3× Flag-3×MBT
- GST Average SNR [1]: 1.24
- GST Average SNR [2]: 0.413
- GST Average SNR [3]: 1.04
- GST Average SNR [4]: 1.16
- GST Average SNR [5]: -0.788
- GST Average SNR [6]: 1.37
- GST Average SNR [7]: 0.283
- GST Average SNR [8]: -0.696
- GST Average SNR [9]: 0.566
